Biological target: human high affinity Fc gamma receptor, Fc gamma RI (human) (UniProt P12314)
Test: enzymatic cell-binding assay

UniProt P12314, sequence (P12314 16-374): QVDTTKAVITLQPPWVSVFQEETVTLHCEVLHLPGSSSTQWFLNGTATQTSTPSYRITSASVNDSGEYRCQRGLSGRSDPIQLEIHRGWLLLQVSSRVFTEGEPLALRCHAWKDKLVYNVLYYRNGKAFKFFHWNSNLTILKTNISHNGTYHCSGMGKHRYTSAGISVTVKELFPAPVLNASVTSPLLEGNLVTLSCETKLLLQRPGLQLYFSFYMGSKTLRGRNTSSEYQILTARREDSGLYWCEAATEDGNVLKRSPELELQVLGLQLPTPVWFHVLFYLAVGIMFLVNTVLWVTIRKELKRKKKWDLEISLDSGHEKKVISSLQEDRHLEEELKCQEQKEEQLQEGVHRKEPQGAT

Ka	fold reduction in binding activity relative to IgG1 and IgG3	Substance
2.8e+08 M⁻¹		exon-exchange chimeric anti-dansyl IgG 2232 (IgG2 with a gamma 3 CH2 domain) (antibody)
3.8e+08 M⁻¹		chimeric anti-dansyl IgG4(Leu[234]) (antibody)
2e+08 M⁻¹		CH1-deleted chimeric anti-dansyl IgG3 (IgG3 ΔCH1) (antibody)
1.8e+09 M⁻¹		exon-exchange chimeric anti-dansyl IgG 3332 (IgG3 bearing the CH3 domain of IgG2) (antibody)
2.2e+08 M⁻¹		chimeric anti-dansyl IgG3 bearing a hinge encoded by the first (unique) gamma 3 hinge exon (IgG3h1) (antibody)
3.1e+08 M⁻¹		chimeric anti-dansyl IgG3(Ser[331]) (antibody)
1.3e+08 M⁻¹		chimeric anti-dansyl IgG4(Leu[234], Pro[331]) (antibody)
1.2e+09 M⁻¹		chimeric anti-dansyl IgG3 (murine variable regions, human IgG3 constant region, human kappa light chain) (antibody)
	10 fold	chimeric anti-dansyl IgG4 (murine variable regions, human IgG4 constant region, human kappa light chain) (antibody)
